Molecular target: insulin receptor extracellular domain, short isoform (IR-A)
Assay: SPR

insulin (from UniProt P01308 25-54; P01308 90-110) (ligand)
Kd: > 122 nM

— article PMC5985231
